Test results: US20260049138A1 (Chugai, published 2026)

B1: GLS3000 R54Q one-arm antibody (antibody, human IgG1, kappa, L234A L235A, N297A, name in Kabat numbering)
heavy: QVQLVESGGGVVQPGRSLRLSCAASGFTFSNAWMHWVRQAPGKGLEWVAQIKAKSNNYATYYAESVKGRFTISRDDSKNSLYLQMNSLKTEDTAVYYCRYVHYGAYYGVDAWGQGTTVTVSSASTKGPSVFPLAPSSKSTSGGTAALGCLVKDYFPEPVTVSWNSGALTSGVHTFPAVLQSSGLYSLSSVVTVPSSSLGTQTYICNVNHKPSNTKVDKKVEPKSCDKTHTCPPCPAPEAAGGPSVFLFPPKPKDTLMISRTPEVTCVVVDVSHEDPEVKFNWYVDGVEVHNAKTKPREEQYASTYRVVSVLTVLHQDWLNGKEYKCKVSNKALPAPIEKTISKAKGQPREPQVYTLPPSRCELTKNQVSLSCAVKGFYPSDIAVEWESNGQPENNYKTTPPVLDSDGSFFLVSKLTVDKSRWQQGNVFSCSVMHEALHNHYTQKSLSLSPDYKDDDDK
chain: EPKSSDKTHTCPPCPAPELLGGPSVFLFPPKPKDTLMISRTPEVTCVVVDVSHEDPEVKFNWYVDGVEVHNAKTKPREEQYNSTYRVVSVLTVLHQDWLNGKEYKCKVSNKALPAPIEKTISKAKGQPREPQVCTLPPSRDELTKNQVSLWCLVKGFYPSDIAVEWESNGQPENNYKTTPPVLDSDGSFFLYSKLTVDKSRWQQGNVFSCSVMHEALHNRYTQKSLSLSP
light: DIVMTQSPLSLPVTPGEPASISCRSSQSLVHSNRNTYLHWYQQKPGQAPRLLIYKVSNQFSGVPDRFSGSGSGTDFTLKISRVEAEDVGVYYCGQGTQVPYTFGQGTKLEIKRTVAAPSVFIFPPSDEQLKSGTASVVCLLNNFYPREAKVQWKVDNALQSGNSQESVTEQDSKDSTYSLSSTLTLSKADYEKHKVYACEVTHQGLSSPVTKSFNRGEC
B2: GLS3000 R77S one-arm antibody (antibody, human IgG1, kappa, L234A L235A, N297A, name in Kabat numbering)
heavy: QVQLVESGGGVVQPGRSLRLSCAASGFTFSNAWMHWVRQAPGKGLEWVAQIKAKSNNYATYYAESVKGRFTISRDDSKNSLYLQMNSLKTEDTAVYYCRYVHYGAYYGVDAWGQGTTVTVSSASTKGPSVFPLAPSSKSTSGGTAALGCLVKDYFPEPVTVSWNSGALTSGVHTFPAVLQSSGLYSLSSVVTVPSSSLGTQTYICNVNHKPSNTKVDKKVEPKSCDKTHTCPPCPAPEAAGGPSVFLFPPKPKDTLMISRTPEVTCVVVDVSHEDPEVKFNWYVDGVEVHNAKTKPREEQYASTYRVVSVLTVLHQDWLNGKEYKCKVSNKALPAPIEKTISKAKGQPREPQVYTLPPSRCELTKNQVSLSCAVKGFYPSDIAVEWESNGQPENNYKTTPPVLDSDGSFFLVSKLTVDKSRWQQGNVFSCSVMHEALHNHYTQKSLSLSPDYKDDDDK
chain: EPKSSDKTHTCPPCPAPELLGGPSVFLFPPKPKDTLMISRTPEVTCVVVDVSHEDPEVKFNWYVDGVEVHNAKTKPREEQYNSTYRVVSVLTVLHQDWLNGKEYKCKVSNKALPAPIEKTISKAKGQPREPQVCTLPPSRDELTKNQVSLWCLVKGFYPSDIAVEWESNGQPENNYKTTPPVLDSDGSFFLYSKLTVDKSRWQQGNVFSCSVMHEALHNRYTQKSLSLSP
light: DIVMTQSPLSLPVTPGEPASISCRSSQSLVHSNRNTYLHWYQQKPGQAPRLLIYKVSNRFSGVPDRFSGSGSGTDFTLKISSVEAEDVGVYYCGQGTQVPYTFGQGTKLEIKRTVAAPSVFIFPPSDEQLKSGTASVVCLLNNFYPREAKVQWKVDNALQSGNSQESVTEQDSKDSTYSLSSTLTLSKADYEKHKVYACEVTHQGLSSPVTKSFNRGEC
B3: GLS3000 R54S one-arm antibody (antibody, human IgG1, kappa, L234A L235A, N297A, name in Kabat numbering)
heavy: QVQLVESGGGVVQPGRSLRLSCAASGFTFSNAWMHWVRQAPGKGLEWVAQIKAKSNNYATYYAESVKGRFTISRDDSKNSLYLQMNSLKTEDTAVYYCRYVHYGAYYGVDAWGQGTTVTVSSASTKGPSVFPLAPSSKSTSGGTAALGCLVKDYFPEPVTVSWNSGALTSGVHTFPAVLQSSGLYSLSSVVTVPSSSLGTQTYICNVNHKPSNTKVDKKVEPKSCDKTHTCPPCPAPEAAGGPSVFLFPPKPKDTLMISRTPEVTCVVVDVSHEDPEVKFNWYVDGVEVHNAKTKPREEQYASTYRVVSVLTVLHQDWLNGKEYKCKVSNKALPAPIEKTISKAKGQPREPQVYTLPPSRCELTKNQVSLSCAVKGFYPSDIAVEWESNGQPENNYKTTPPVLDSDGSFFLVSKLTVDKSRWQQGNVFSCSVMHEALHNHYTQKSLSLSPDYKDDDDK
chain: EPKSSDKTHTCPPCPAPELLGGPSVFLFPPKPKDTLMISRTPEVTCVVVDVSHEDPEVKFNWYVDGVEVHNAKTKPREEQYNSTYRVVSVLTVLHQDWLNGKEYKCKVSNKALPAPIEKTISKAKGQPREPQVCTLPPSRDELTKNQVSLWCLVKGFYPSDIAVEWESNGQPENNYKTTPPVLDSDGSFFLYSKLTVDKSRWQQGNVFSCSVMHEALHNRYTQKSLSLSP
light: DIVMTQSPLSLPVTPGEPASISCRSSQSLVHSNRNTYLHWYQQKPGQAPRLLIYKVSNSFSGVPDRFSGSGSGTDFTLKISRVEAEDVGVYYCGQGTQVPYTFGQGTKLEIKRTVAAPSVFIFPPSDEQLKSGTASVVCLLNNFYPREAKVQWKVDNALQSGNSQESVTEQDSKDSTYSLSSTLTLSKADYEKHKVYACEVTHQGLSSPVTKSFNRGEC
B4: GLS3000 S25A one-arm antibody (antibody, human IgG1, kappa, L234A L235A, N297A, name in Kabat numbering)
heavy: QVQLVESGGGVVQPGRSLRLSCAASGFTFSNAWMHWVRQAPGKGLEWVAQIKAKSNNYATYYAESVKGRFTISRDDSKNSLYLQMNSLKTEDTAVYYCRYVHYGAYYGVDAWGQGTTVTVSSASTKGPSVFPLAPSSKSTSGGTAALGCLVKDYFPEPVTVSWNSGALTSGVHTFPAVLQSSGLYSLSSVVTVPSSSLGTQTYICNVNHKPSNTKVDKKVEPKSCDKTHTCPPCPAPEAAGGPSVFLFPPKPKDTLMISRTPEVTCVVVDVSHEDPEVKFNWYVDGVEVHNAKTKPREEQYASTYRVVSVLTVLHQDWLNGKEYKCKVSNKALPAPIEKTISKAKGQPREPQVYTLPPSRCELTKNQVSLSCAVKGFYPSDIAVEWESNGQPENNYKTTPPVLDSDGSFFLVSKLTVDKSRWQQGNVFSCSVMHEALHNHYTQKSLSLSPDYKDDDDK
chain: EPKSSDKTHTCPPCPAPELLGGPSVFLFPPKPKDTLMISRTPEVTCVVVDVSHEDPEVKFNWYVDGVEVHNAKTKPREEQYNSTYRVVSVLTVLHQDWLNGKEYKCKVSNKALPAPIEKTISKAKGQPREPQVCTLPPSRDELTKNQVSLWCLVKGFYPSDIAVEWESNGQPENNYKTTPPVLDSDGSFFLYSKLTVDKSRWQQGNVFSCSVMHEALHNRYTQKSLSLSP
light: DIVMTQSPLSLPVTPGEPASISCRASQSLVHSNRNTYLHWYQQKPGQAPRLLIYKVSNRFSGVPDRFSGSGSGTDFTLKISRVEAEDVGVYYCGQGTQVPYTFGQGTKLEIKRTVAAPSVFIFPPSDEQLKSGTASVVCLLNNFYPREAKVQWKVDNALQSGNSQESVTEQDSKDSTYSLSSTLTLSKADYEKHKVYACEVTHQGLSSPVTKSFNRGEC
B5: GLS3000 R54W one-arm antibody (antibody, human IgG1, kappa, L234A L235A, N297A, name in Kabat numbering)
heavy: QVQLVESGGGVVQPGRSLRLSCAASGFTFSNAWMHWVRQAPGKGLEWVAQIKAKSNNYATYYAESVKGRFTISRDDSKNSLYLQMNSLKTEDTAVYYCRYVHYGAYYGVDAWGQGTTVTVSSASTKGPSVFPLAPSSKSTSGGTAALGCLVKDYFPEPVTVSWNSGALTSGVHTFPAVLQSSGLYSLSSVVTVPSSSLGTQTYICNVNHKPSNTKVDKKVEPKSCDKTHTCPPCPAPEAAGGPSVFLFPPKPKDTLMISRTPEVTCVVVDVSHEDPEVKFNWYVDGVEVHNAKTKPREEQYASTYRVVSVLTVLHQDWLNGKEYKCKVSNKALPAPIEKTISKAKGQPREPQVYTLPPSRCELTKNQVSLSCAVKGFYPSDIAVEWESNGQPENNYKTTPPVLDSDGSFFLVSKLTVDKSRWQQGNVFSCSVMHEALHNHYTQKSLSLSPDYKDDDDK
chain: EPKSSDKTHTCPPCPAPELLGGPSVFLFPPKPKDTLMISRTPEVTCVVVDVSHEDPEVKFNWYVDGVEVHNAKTKPREEQYNSTYRVVSVLTVLHQDWLNGKEYKCKVSNKALPAPIEKTISKAKGQPREPQVCTLPPSRDELTKNQVSLWCLVKGFYPSDIAVEWESNGQPENNYKTTPPVLDSDGSFFLYSKLTVDKSRWQQGNVFSCSVMHEALHNRYTQKSLSLSP
light: DIVMTQSPLSLPVTPGEPASISCRSSQSLVHSNRNTYLHWYQQKPGQAPRLLIYKVSNWFSGVPDRFSGSGSGTDFTLKISRVEAEDVGVYYCGQGTQVPYTFGQGTKLEIKRTVAAPSVFIFPPSDEQLKSGTASVVCLLNNFYPREAKVQWKVDNALQSGNSQESVTEQDSKDSTYSLSSTLTLSKADYEKHKVYACEVTHQGLSSPVTKSFNRGEC
B6: GLS3000 R54T one-arm antibody (antibody, human IgG1, kappa, L234A L235A, N297A, name in Kabat numbering)
heavy: QVQLVESGGGVVQPGRSLRLSCAASGFTFSNAWMHWVRQAPGKGLEWVAQIKAKSNNYATYYAESVKGRFTISRDDSKNSLYLQMNSLKTEDTAVYYCRYVHYGAYYGVDAWGQGTTVTVSSASTKGPSVFPLAPSSKSTSGGTAALGCLVKDYFPEPVTVSWNSGALTSGVHTFPAVLQSSGLYSLSSVVTVPSSSLGTQTYICNVNHKPSNTKVDKKVEPKSCDKTHTCPPCPAPEAAGGPSVFLFPPKPKDTLMISRTPEVTCVVVDVSHEDPEVKFNWYVDGVEVHNAKTKPREEQYASTYRVVSVLTVLHQDWLNGKEYKCKVSNKALPAPIEKTISKAKGQPREPQVYTLPPSRCELTKNQVSLSCAVKGFYPSDIAVEWESNGQPENNYKTTPPVLDSDGSFFLVSKLTVDKSRWQQGNVFSCSVMHEALHNHYTQKSLSLSPDYKDDDDK
chain: EPKSSDKTHTCPPCPAPELLGGPSVFLFPPKPKDTLMISRTPEVTCVVVDVSHEDPEVKFNWYVDGVEVHNAKTKPREEQYNSTYRVVSVLTVLHQDWLNGKEYKCKVSNKALPAPIEKTISKAKGQPREPQVCTLPPSRDELTKNQVSLWCLVKGFYPSDIAVEWESNGQPENNYKTTPPVLDSDGSFFLYSKLTVDKSRWQQGNVFSCSVMHEALHNRYTQKSLSLSP
light: DIVMTQSPLSLPVTPGEPASISCRSSQSLVHSNRNTYLHWYQQKPGQAPRLLIYKVSNTFSGVPDRFSGSGSGTDFTLKISRVEAEDVGVYYCGQGTQVPYTFGQGTKLEIKRTVAAPSVFIFPPSDEQLKSGTASVVCLLNNFYPREAKVQWKVDNALQSGNSQESVTEQDSKDSTYSLSSTLTLSKADYEKHKVYACEVTHQGLSSPVTKSFNRGEC

Molecular target: T1, CD3ε homodimer protein (human, UniProt P07766 23-126, limits assumed)
T1 construct: also called CD3 (CD3ε)
Experiment: SPR Biacore T200, CD3ε homodimer on chip;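 also: Light-chain single-residue variant antibodies injected over amine-coupled CD3ε homodimer on a CM4 chip at 25 °C, bound amount divided by that of the GLS3000-containing antibody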

T1 sequence (P07766 23-126 limits assumed): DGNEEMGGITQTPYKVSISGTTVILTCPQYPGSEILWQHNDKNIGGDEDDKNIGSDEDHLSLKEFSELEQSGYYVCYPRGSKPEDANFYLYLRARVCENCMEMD

**Q.** B1 was tested. Which “ratio of amount bound vs unaltered GLS3000” value (shortened to “ratio of amount bound”) did it give?
**A.** Its value is 0.68.

**Q.** Which “ratio of amount bound” value does the source give for B2 here?
**A.** The value was 0.92.

**Q.** With B3 as the binder, how does the “ratio of amount bound” value read?
**A.** Its value is 0.79.

**Q.** How did the “ratio of amount bound” value turn out when B4 was run?
**A.** Its value is 0.92.

**Q.** B5 was tested. Which “ratio of amount bound” value did it give?
**A.** The value was 0.78.

**Q.** How did the “ratio of amount bound” value turn out when B6 was run?
**A.** Its value is 0.65.
